# In patent US20110097262A1 (PIERRE FABRE MEDICAMENT, published 2011):
# Target: C-Met-Rluc (R. reniformis, UniProt P08581 25-1390; P27652 1-311)
# Assay: cell-based or functional assay
# Sequence of C-Met-Rluc (P08581 other isoform, or with tags, fused parts or gaps): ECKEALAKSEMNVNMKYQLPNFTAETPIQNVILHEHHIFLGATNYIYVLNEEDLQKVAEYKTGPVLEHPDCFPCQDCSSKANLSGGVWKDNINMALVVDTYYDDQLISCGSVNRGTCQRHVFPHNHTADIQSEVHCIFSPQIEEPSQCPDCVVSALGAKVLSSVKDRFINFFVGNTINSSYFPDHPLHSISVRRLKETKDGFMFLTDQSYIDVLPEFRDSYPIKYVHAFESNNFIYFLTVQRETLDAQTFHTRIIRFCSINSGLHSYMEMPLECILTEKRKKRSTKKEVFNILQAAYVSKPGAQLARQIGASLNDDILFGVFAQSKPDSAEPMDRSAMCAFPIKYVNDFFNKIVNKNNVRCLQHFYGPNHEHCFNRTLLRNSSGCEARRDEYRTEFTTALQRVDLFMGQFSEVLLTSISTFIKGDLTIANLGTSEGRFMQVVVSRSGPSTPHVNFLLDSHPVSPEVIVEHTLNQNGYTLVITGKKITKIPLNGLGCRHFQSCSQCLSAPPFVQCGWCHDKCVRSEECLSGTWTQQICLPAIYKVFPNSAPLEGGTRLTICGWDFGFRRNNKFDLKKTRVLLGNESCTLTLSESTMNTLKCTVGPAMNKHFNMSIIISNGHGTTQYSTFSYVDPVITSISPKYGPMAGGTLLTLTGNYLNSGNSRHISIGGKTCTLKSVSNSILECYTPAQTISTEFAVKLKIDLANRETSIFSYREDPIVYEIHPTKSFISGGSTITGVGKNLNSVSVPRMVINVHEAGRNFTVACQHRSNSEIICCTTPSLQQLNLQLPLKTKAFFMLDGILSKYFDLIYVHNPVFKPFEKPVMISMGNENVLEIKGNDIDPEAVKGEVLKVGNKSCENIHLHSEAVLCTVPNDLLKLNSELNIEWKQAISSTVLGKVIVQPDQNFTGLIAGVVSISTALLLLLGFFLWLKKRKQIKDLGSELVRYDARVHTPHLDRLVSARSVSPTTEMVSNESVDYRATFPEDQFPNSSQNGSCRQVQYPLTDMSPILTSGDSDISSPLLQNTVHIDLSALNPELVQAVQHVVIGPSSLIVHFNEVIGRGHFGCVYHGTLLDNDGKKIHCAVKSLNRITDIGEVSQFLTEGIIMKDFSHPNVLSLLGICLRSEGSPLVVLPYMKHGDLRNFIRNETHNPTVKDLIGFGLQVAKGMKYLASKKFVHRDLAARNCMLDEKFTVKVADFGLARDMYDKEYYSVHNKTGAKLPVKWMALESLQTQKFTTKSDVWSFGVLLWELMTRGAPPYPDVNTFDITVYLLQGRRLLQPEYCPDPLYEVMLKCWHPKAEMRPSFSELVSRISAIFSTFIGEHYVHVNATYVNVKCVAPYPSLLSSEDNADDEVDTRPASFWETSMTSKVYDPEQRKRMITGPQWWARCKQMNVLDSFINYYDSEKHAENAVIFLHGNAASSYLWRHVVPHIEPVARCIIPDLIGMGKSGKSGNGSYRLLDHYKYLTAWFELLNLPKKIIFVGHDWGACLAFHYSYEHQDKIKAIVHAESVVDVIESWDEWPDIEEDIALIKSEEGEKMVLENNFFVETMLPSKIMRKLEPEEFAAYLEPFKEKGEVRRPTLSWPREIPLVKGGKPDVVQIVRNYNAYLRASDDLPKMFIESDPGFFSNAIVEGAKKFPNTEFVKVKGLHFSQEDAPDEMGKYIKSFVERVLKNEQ
Binder,"BRET signal by Mab alone, c-Met activation model [%]","inhibition of HGF induced BRET signal, c-Met activation model [%]"
"[224G11] [MHchim] (antibody, human IgG1, V domains shown) VH: EVQLQQSGPELVKPGASVKISCKTSGYIFTAYTMHWVRQSLGESLDWIGGIKPNNGLANYNQKFKGKATLTVDKSSSTAYMDLRSLTSEDSAVYYCARSEITTEFDYWGQGTALTVSS VL: DIVLTQSPASLAVSLGQRATISCRASESVDSYANSFMHWYQQKPGQPPKLLIYRASNLESGIPARFSGSGSRTDFTLTINPVEADDVATYYCQQSKEDPLTFGSGTKLEMKR",5.1,
"[224G11] [MUP9Hchim] (antibody, human IgG1, V domains shown) VH: EVQLQQSGPELVKPGASVKISCKTSGYIFTAYTMHWVRQSLGESLDWIGGIKPNNGLANYNQKFKGKATLTVDKSSSTAYMDLRSLTSEDSAVYYCARSEITTEFDYWGQGTALTVSS VL: DIVLTQSPASLAVSLGQRATISCRASESVDSYANSFMHWYQQKPGQPPKLLIYRASNLESGIPARFSGSGSRTDFTLTINPVEADDVATYYCQQSKEDPLTFGSGTKLEMKR",7.6,
"[224G11] [MMCHchim] (antibody, human IgG1, V domains shown) VH: EVQLQQSGPELVKPGASVKISCKTSGYIFTAYTMHWVRQSLGESLDWIGGIKPNNGLANYNQKFKGKATLTVDKSSSTAYMDLRSLTSEDSAVYYCARSEITTEFDYWGQGTALTVSS VL: DIVLTQSPASLAVSLGQRATISCRASESVDSYANSFMHWYQQKPGQPPKLLIYRASNLESGIPARFSGSGSRTDFTLTINPVEADDVATYYCQQSKEDPLTFGSGTKLEMKR",-2,
"[224G11][TH7chim] (antibody, human IgG1) heavy: not shown light: DIVLTQSPASLAVSLGQRATISCRASESVDSYANSFMHWYQQKPGQPPKLLIYRASNLESGIPARFSGSGSRTDFTLTINPVEADDVATYYCQQSKEDPLTFGSGTKLEMKRTVAAPSVFIFPPSDEQLKSGTASVVCLLNNFYPREAKVQWKVDNALQSGNSQESVTEQDSKDSTYSLSSTLTLSKADYEKHKVYACEVTHQGLSSPVTKSFNRGEC",-6.9,
[224G11] [IgG2chim] (antibody) heavy: EVQLQQSGPELVKPGASVKISCKTSGYIFTAYTMHWVRQSLGESLDWIGGIKPNNGLANYNQKFKGKATLTVDKSSSTAYMDLRSLTSEDSAVYYCARSEITTEFDYWGQGTALTVSSASTKGPSVFPLAPCSRSTSESTAALGCLVKDYFPEPVTVSWNSGALTSGVHTFPAVLQSSGLYSLSSVVTVPSSNFGTQTYTCNVDHKPSNTKVDKTVERKCCVECPPCPAPPVAGPSVFLFPPKPKDTLMISRTPEVTCVVVDVSHEDPEVQFNWYVDGVEVHNAKTKPREEQFNSTFRVVSVLTVVHQDWLNGKEYKCKVSNKGLPAPIEKTISKTKGQPREPQVYTLPPSREEMTKNQVSLTCLVKGFYPSDIAVEWESNGQPENNYKTTPPMLDSDGSFFLYSKLTVDKSRWQQGNVFSCSVMHEALHNHYTQKSLSLSPG light: DIVLTQSPASLAVSLGQRATISCRASESVDSYANSFMHWYQQKPGQPPKLLIYRASNLESGIPARFSGSGSRTDFTLTINPVEADDVATYYCQQSKEDPLTFGSGTKLEMKRTVAAPSVFIFPPSDEQLKSGTASVVCLLNNFYPREAKVQWKVDNALQSGNSQESVTEQDSKDSTYSLSSTLTLSKADYEKHKVYACEVTHQGLSSPVTKSFNRGEC,,66.3
